# According to patent US20210301029A1 (LYVGEN BIOPHARMA, published 2021):
# T1: human FcγRIIB (human, UniProt P31994 43-310)
# T1 construct: whole, on cells; also called CD32b; FcγR2B
# T1 sequence (looked up): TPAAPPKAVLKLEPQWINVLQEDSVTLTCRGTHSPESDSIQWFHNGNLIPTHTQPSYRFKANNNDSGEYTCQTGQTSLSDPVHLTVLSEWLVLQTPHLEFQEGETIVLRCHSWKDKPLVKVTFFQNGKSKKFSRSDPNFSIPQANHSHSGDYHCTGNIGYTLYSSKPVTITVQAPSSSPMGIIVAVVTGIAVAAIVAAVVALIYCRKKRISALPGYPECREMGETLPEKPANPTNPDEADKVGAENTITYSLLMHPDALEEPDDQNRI
# B1: 383-huIgG2m20 (antibody)
# heavy: not shown
# light: DIQMTQSPSSVSASVGDRVTITCRASQGIYSWLAWYQQKPGKAPNLLIYTASTLQSGVPSRFSGSGSGTDFTLTISSLQPEDFATYYCQQANIFPLTFGGGTKVEIKRTVAAPSVFIFPPSDEQLKSGTASVVCLLNNFYPREAKVQWKVDNALQSGNSQESVTEQDSKDSTYSLSSTLTLSKADYEKHKVYACEVTHQGLSSPVTKSFNRGEC
# notes: also called 383-G2m20; 383-IghuG2m20
# B2: 383-huIgG4m20 (antibody)
# heavy: not shown
# light: B1 light
# B3: 383-huIgG1 (antibody)
# heavy chain: not shown
# light chain: B1 light
# notes: anti-CD40 antibody 383 on a wild-type human IgG1 constant region
# B4: 383-huIgG2m44 (antibody)
# heavy: not shown
# light: B1 light
# B5: 383-huIgG4mAA (antibody)
# heavy: not shown
# light: B1 light
# B6: 383-huIgG2m19 (antibody)
# heavy: not shown
# light: B1 light
# B7: 383-huIgG4m42 (antibody)
# heavy: not shown
# light: B1 light
# B8: 383-huIgG1m48 (antibody)
# heavy: not shown
# light: B1 light
# B9: 383-huIgG1m240 (antibody)
# heavy: not shown
# light: B1 light
# B10: 383-huIgG1 N297A (antibody)
# heavy: not shown
# light: B1 light
# notes: the entry already carries the change
# B11: 383-huIgG2m40 (antibody)
# heavy: not shown
# light: B1 light
# notes: also called 383-G2m40; 383-IghuG2m40
# B12: 383-huIgG2m43 (antibody)
# heavy: not shown
# light: B1 light
# B13: 383-huIgG1m47 (antibody)
# heavy: not shown
# light: B1 light
# B14: 383-huIgG1m49 (antibody)
# heavy: not shown
# light: B1 light
# B15: 383-huIgG2m2040 (antibody)
# heavy: not shown
# light: B1 light
# B16: 383-huIgG2m1 (antibody)
# heavy: not shown
# light: B1 light
# B17: 383-huIgG1m40 (antibody)
# heavy: not shown
# light: B1 light
# B18: 383-huIgG4m30 (antibody)
# heavy: not shown
# light: B1 light
# B19: 383-huIgG2G4 (antibody)
# heavy: not shown
# light: B1 light
# B20: 383-huIgG1m50 (antibody)
# heavy: not shown
# light: B1 light
# B21: 383-huIgG4SP (antibody)
# heavy chain: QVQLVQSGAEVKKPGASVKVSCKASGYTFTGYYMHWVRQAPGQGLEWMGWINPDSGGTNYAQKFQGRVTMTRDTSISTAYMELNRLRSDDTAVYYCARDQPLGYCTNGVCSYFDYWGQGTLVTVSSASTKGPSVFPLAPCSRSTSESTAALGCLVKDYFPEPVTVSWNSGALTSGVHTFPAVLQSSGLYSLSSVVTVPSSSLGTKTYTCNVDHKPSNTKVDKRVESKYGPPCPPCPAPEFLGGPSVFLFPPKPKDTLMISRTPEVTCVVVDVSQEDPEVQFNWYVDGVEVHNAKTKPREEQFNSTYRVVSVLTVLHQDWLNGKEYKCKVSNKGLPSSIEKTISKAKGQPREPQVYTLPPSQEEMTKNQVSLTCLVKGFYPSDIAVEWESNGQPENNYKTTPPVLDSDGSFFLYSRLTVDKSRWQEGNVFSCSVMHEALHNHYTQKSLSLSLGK
# light chain: B1 light
# notes: anti-CD40 antibody 383 on a human IgG4 S228P constant region
# B22: 383-huIgG4m41 (antibody)
# heavy: not shown
# light: B1 light
# B23: 383-huIgG1mAA (antibody)
# heavy: not shown
# light: B1 light
# B24: 383-huIgG4mPE (antibody)
# heavy: not shown
# light: B1 light
# B25: 383-huIgG1m45 (antibody)
# heavy: not shown
# light: B1 light
# B26: 383-huIgG2mAA (antibody)
# heavy: not shown
# light: B1 light
# B27: 383-huIgG1m2 (antibody)
# heavy: not shown
# light: B1 light
# notes: also called 383-G1m2
# B28: 383-huIgG4m2 (antibody)
# heavy: not shown
# light: B1 light
# B29: 383-huIgG1mAAG (antibody)
# heavy: not shown
# light: B1 light
# notes: Anti-CD40 antibody 383 with Fc variant G1mAAG; also called G1mAG
# B30: 383-huIgG1m27 (antibody)
# heavy: not shown
# light: B1 light
# B31: 383-huIgG4m40 (antibody)
# heavy: not shown
# light: B1 light
# B32: 383-huIgG4m46 (antibody)
# heavy: not shown
# light: B1 light
# Biological target: T2, human FcγRI (human, UniProt P12314 16-374)
# T2 construct: whole, on cells; also called CD64
# T2 sequence (P12314 16-374): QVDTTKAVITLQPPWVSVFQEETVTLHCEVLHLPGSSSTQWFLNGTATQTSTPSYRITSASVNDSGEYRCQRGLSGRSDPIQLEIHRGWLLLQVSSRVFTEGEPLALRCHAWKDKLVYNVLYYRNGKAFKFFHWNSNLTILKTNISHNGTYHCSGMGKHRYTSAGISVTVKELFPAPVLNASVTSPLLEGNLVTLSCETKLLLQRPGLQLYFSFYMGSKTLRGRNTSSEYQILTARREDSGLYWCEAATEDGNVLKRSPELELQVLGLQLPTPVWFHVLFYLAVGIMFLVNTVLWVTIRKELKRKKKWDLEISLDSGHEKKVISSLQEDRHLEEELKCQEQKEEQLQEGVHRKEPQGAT
# Assay: FACS on CHO cells expressing human FcγRI (MFI)
# Protocol: (§1) For FACS analysis of the IgG mutants' binding to different FcγRs, FcγR overexpressing CHO cells were harvested using trypsin-EDTA and were suspended in cold staining buffer (3% BSA in PBS). Test IgG mutants, which were diluted in staining buffer, were added into the cells. The mixture was incubated at 4° C. for 2 hours, and then washed twice with cold staining buffer and re-suspended in PE-labeled anti-human IgG followed by incubation at 4° C. for 2 hours. The mixture was washed twice with staining buffer and re-suspended in 2% PFA in PBS for FACS.
row,binding result,Binder
1,no binding (tested: 30 µg/mL),B1
2,no binding (tested: 30 µg/mL),B2
3,binds,B3
4,no binding (tested: 30 µg/mL),B4
5,binds,B5
6,no binding (tested: 30 µg/mL),B6
7,no binding (tested: 30 µg/mL),B7
8,binds,B8
9,no binding (tested: 30 µg/mL),B9
10,binds,B10
11,no binding (tested: 30 µg/mL),B11
12,no binding (tested: 30 µg/mL),B12
13,no binding (tested: 30 µg/mL),B13
14,binds,B14
15,no binding (tested: 30 µg/mL),B15
16,no binding (tested: 30 µg/mL),B16
17,no binding (tested: 30 µg/mL),B17
18,no binding (tested: 30 µg/mL),B18
19,no binding (tested: 30 µg/mL),B19
20,binds,B20
21,binds,B21
22,no binding (tested: 30 µg/mL),B22
23,no binding (tested: 30 µg/mL),B23
24,binds,B24
25,no binding (tested: 30 µg/mL),B25
26,no binding (tested: 30 µg/mL),B26

# Biological target: T1, human FcγRIIB
# Assay: FACS on CHO cells expressing human FcγRIIB (MFI)
# Protocol: as §1
row,binding result,Binder
1,binds,B27
2,binds,B1
3,no binding (tested: 30 µg/mL),B2
4,binds,B3
5,binds,B4
6,binds,B5
7,binds,B28
8,binds,B6
9,no binding (tested: 30 µg/mL),B7
10,no binding (tested: 30 µg/mL),B29
11,binds,B30
12,binds,B8
13,binds,B10
14,no binding (tested: 30 µg/mL),B11
15,binds,B13
16,binds,B14
17,no binding (tested: 30 µg/mL),B16
18,no binding (tested: 30 µg/mL),B17
19,binds,B19
20,binds,B20
21,binds,B21
22,no binding (tested: 30 µg/mL),B22
23,no binding (tested: 30 µg/mL),B23
24,no binding (tested: 30 µg/mL),B31
25,binds,B24
26,binds,B32
27,binds,B25
28,binds,B26

# Biological target: T3, human FcγRIII (human, UniProt P08637 17-254)
# T3 construct: whole, on cells; also called FcγRIIIA; CD16a
# T3 sequence (P08637 17-254): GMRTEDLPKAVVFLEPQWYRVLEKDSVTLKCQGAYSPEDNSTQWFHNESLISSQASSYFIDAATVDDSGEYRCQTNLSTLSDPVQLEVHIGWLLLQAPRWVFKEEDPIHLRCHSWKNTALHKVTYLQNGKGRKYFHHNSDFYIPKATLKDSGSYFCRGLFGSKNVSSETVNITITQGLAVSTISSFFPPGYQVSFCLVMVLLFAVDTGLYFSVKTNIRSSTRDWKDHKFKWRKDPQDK
# Assay: FACS on CHO cells expressing human FcγRIIIA (MFI)
# Protocol: as §1
row,binding result,Binder
1,no binding (tested: 30 µg/mL),B1
2,no binding (tested: 30 µg/mL),B2
3,no binding (tested: 30 µg/mL),B4
4,no binding (tested: 30 µg/mL),B28
5,no binding (tested: 30 µg/mL),B6
6,no binding (tested: 30 µg/mL),B7
7,no binding (tested: 30 µg/mL),B29
8,no binding (tested: 30 µg/mL),B8
9,no binding (tested: 30 µg/mL),B10
10,no binding (tested: 30 µg/mL),B11
11,no binding (tested: 30 µg/mL),B12
12,no binding (tested: 30 µg/mL),B15
13,no binding (tested: 30 µg/mL),B16
14,no binding (tested: 30 µg/mL),B17
15,no binding (tested: 30 µg/mL),B18
16,no binding (tested: 30 µg/mL),B19
17,no binding (tested: 30 µg/mL),B21
18,no binding (tested: 30 µg/mL),B22
19,no binding (tested: 30 µg/mL),B23
20,no binding (tested: 30 µg/mL),B31
21,no binding (tested: 30 µg/mL),B32
22,no binding (tested: 30 µg/mL),B26
